Measured values taken from doi:10.1101/554881, “LRRK2-mediated phosphorylation of HDAC6 regulates HDAC6-cytoplasmic dynein interaction and aggresome formation” (bioRxiv, 2019).

Molecular target: T1, GST-tagged human LRRK2 wild type (amino acids 970-2527) (human, UniProt Q5S007 970-2527)
T1 construct: LRRK2, human, amino acids 970-2527; also called GST-LRRK2; GST-LRRK2 (aa 970-2527); source: bought: Invitrogen
Assay: pull-down; GST-LRRK2 (aa 970-2527; 1 µg) or GST (1 µg) incubated with His-HDAC6 (1 µg) in 250 µl RB100 buffer (25 mM HEPES pH 7.5, 100 mM KOAc, 10 mM MgCl2, 1 mM DTT, 0.05% Triton X-100, 10% glycerol) for 1 h at 4°C; captured on glutathione sepharose; immunoblot
Conditions: both partners purified

T1 sequence (Q5S007 970-2527): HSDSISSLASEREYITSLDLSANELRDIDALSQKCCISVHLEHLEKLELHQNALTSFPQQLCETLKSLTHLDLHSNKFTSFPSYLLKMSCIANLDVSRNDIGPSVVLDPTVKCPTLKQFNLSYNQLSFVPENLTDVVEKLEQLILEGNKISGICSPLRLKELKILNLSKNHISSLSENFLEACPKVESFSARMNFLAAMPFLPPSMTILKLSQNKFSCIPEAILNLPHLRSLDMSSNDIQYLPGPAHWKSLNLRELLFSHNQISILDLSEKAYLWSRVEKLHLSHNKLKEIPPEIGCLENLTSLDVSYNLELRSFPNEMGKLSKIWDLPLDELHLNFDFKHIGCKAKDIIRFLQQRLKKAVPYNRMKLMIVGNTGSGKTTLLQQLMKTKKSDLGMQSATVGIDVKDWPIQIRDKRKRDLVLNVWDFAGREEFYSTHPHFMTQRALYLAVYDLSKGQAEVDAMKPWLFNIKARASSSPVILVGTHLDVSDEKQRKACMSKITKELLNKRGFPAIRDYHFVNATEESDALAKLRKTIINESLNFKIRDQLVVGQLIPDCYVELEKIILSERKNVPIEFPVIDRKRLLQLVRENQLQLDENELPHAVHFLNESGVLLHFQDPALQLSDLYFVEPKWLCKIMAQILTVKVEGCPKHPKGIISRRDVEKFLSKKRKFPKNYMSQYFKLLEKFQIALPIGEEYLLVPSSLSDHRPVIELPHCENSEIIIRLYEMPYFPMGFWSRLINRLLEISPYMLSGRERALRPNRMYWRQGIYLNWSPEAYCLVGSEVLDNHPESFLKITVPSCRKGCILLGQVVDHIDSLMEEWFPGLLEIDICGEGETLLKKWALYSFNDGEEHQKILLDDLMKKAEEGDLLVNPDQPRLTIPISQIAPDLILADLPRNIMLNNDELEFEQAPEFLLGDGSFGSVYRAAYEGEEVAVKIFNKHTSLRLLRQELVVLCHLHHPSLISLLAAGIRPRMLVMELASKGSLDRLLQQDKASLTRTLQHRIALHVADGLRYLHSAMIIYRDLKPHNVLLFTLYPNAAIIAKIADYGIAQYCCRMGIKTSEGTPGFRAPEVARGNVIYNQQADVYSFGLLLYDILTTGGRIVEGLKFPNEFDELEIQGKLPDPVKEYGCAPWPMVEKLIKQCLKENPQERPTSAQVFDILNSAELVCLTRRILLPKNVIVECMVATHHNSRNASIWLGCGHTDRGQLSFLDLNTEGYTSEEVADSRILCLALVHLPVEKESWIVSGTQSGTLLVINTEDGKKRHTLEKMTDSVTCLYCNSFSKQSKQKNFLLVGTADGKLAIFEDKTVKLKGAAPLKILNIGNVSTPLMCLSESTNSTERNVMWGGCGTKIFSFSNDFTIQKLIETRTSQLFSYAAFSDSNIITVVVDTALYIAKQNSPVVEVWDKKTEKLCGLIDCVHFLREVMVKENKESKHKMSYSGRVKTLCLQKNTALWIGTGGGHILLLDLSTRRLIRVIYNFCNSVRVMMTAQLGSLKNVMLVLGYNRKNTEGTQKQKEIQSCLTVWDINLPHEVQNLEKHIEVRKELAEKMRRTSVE

B1: recombinant His-tagged human HDAC6 protein (enzyme, UniProt Q9UBN7 1-1215, looked up)
chain: MTSTGQDSTTTRQRRSRQNPQSPPQDSSVTSKRNIKKGAVPRSIPNLAEVKKKGKMKKLGQAMEEDLIVGLQGMDLNLEAEALAGTGLVLDEQLNEFHCLWDDSFPEGPERLHAIKEQLIQEGLLDRCVSFQARFAEKEELMLVHSLEYIDLMETTQYMNEGELRVLADTYDSVYLHPNSYSCACLASGSVLRLVDAVLGAEIRNGMAIIRPPGHHAQHSLMDGYCMFNHVAVAARYAQQKHRIRRVLIVDWDVHHGQGTQFTFDQDPSVLYFSIHRYEQGRFWPHLKASNWSTTGFGQGQGYTINVPWNQVGMRDADYIAAFLHVLLPVALEFQPQLVLVAAGFDALQGDPKGEMAATPAGFAQLTHLLMGLAGGKLILSLEGGYNLRALAEGVSASLHTLLGDPCPMLESPGAPCRSAQASVSCALEALEPFWEVLVRSTETVERDNMEEDNVEESEEEGPWEPPVLPILTWPVLQSRTGLVYDQNMMNHCNLWDSHHPEVPQRILRIMCRLEELGLAGRCLTLTPRPATEAELLTCHSAEYVGHLRATEKMKTRELHRESSNFDSIYICPSTFACAQLATGAACRLVEAVLSGEVLNGAAVVRPPGHHAEQDAACGFCFFNSVAVAARHAQTISGHALRILIVDWDVHHGNGTQHMFEDDPSVLYVSLHRYDHGTFFPMGDEGASSQIGRAAGTGFTVNVAWNGPRMGDADYLAAWHRLVLPIAYEFNPELVLVSAGFDAARGDPLGGCQVSPEGYAHLTHLLMGLASGRIILILEGGYNLTSISESMAACTRSLLGDPPPLLTLPRPPLSGALASITETIQVHRRYWRSLRVMKVEDREGPSSSKLVTKKAPQPAKPRLAERMTTREKKVLEAGMGKVTSASFGEESTPGQTNSETAVVALTQDQPSEAATGGATLAQTISEAAIGGAMLGQTTSEEAVGGATPDQTTSEETVGGAILDQTTSEDAVGGATLGQTTSEEAVGGATLAQTTSEAAMEGATLDQTTSEEAPGGTELIQTPLASSTDHQTPPTSPVQGTTPQISPSTLIGSLRTLELGSESQGASESQAPGEENLLGEAAGGQDMADSMLMQGSRGLTDQAIFYAVTPLPWCPHLVAVCPIPAAGLDVTQPCGDCGTIQENWVCLSCYQVYCGRYINGHMLQHHGNSGHPLVLSYIDLSAWCYYCQAYVHHQALLDVKNIAHQNKFGEDMPHPH
notes: Histone deacetylase 6 (HDAC6), human, full length; also called His-HDAC6; full-length human His-HDAC6; source: bought: EMD Millipore
Question: Does B1 bind?
Answer: binds
